This note sets out measurements from US20230257458A1 (SUNSHINE LAKE PHARMA, published 2023).

Changes are numbered by the printed parent chain.

The chains are these.
B1: 3-9E1-3A2 (antibody, human IgG1, kappa, V domains shown)
VH: QIQLVQSGPELKKPGETVNISCRASGDTFTNYAVNWVKQAPGKGLKWMGWIDTYTGDPTYADDLKGRFAFSLETSATTAYLQINNLKNEDTATYFCAGDTWFAYWGQGTLVTVSA
VL: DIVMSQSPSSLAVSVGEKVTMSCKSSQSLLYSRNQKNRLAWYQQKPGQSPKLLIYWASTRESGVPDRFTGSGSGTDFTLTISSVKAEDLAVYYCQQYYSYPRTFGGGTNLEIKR
B2: 3-7C9-1A6 (antibody, human IgG1, kappa, V domains shown)
VH: QVQLKQSGPGLVQPSQSLSITCTVSGFSLTNYGVHWVRQSPGKGLEWLGAIWRGGSTDYNAAFMSRLSITKDNSKSQVFFKMNSLQPDDTAIYYCAKNLYGPAAMDYWGQGTSVTVSS
VL: DIQMNQSPSSLSASLGDTITITCHANQNIYVWLSWYQQKPGNIPKLLIYEASNLHTGVPSRFSGSGSGTGFTLTISSLQPEDIATYYCQQGQSYPYTFGGGTKLEIKR
B3: 3-15D5-3A6 (antibody, human IgG1, kappa, V domains shown)
VH: QVTLKESGPGILQPSQTLSLTCSFSGFSLSSSGMSVGWIRQPSGKGLEWLAHIWWSDDKSYNPALKSRLTISKDTSNNQVFLKIASVVTADTATYYCAREGSLGYGLDYWGQGTTLTVSS
VL: DVLMTQTPLSLPVSLGDQASISCRSSQSIVHTDGNTYLEWYLQKPGQSPKLLIYKVSNRFSGVPDRFSGSGSGTDFTLKISRVEAEDLGVYYCFQGSHVPWTFGGGTKLEIKR
B4: 3-15D5-6A1 (antibody, human IgG1, kappa, V domains shown)
VH: EVKLLESGGGLVQPGGSLKLSCAASGFDFRRYWMSWVRQAPGKGLEWIGQINPDSSMINYTPSLKDKFIISRDNAKNTLYLQMSEVRSEDTALYYCATYGHHATDSWGQGTSVTVSS
VL: DIVLTQSPASLAVSLGQRATISCRASESVDSYGNSFMHWYQQKPGQPPKLLIYRASNLESGIPARFSGSGSRTDFTLTINPVEADDVATYYCQQSNEDPFTFGSGTKLEIKR
B5: 3-2B5-3D2 (antibody, human IgG1, kappa, V domains shown)
VH: QVQLKQSGPGLVLPSQSLSITCTVSGFSLTSYGVHWFRQSPGTGLEWLGVIWSGGITDYNATFIPRLSISKDNSKSQVFFKMNSLQADDTAIYYCARNFDGYYYSIDYWGQGTSVTVSS
VL: DIQMTQTTSSLSASLGDRVTISCRASQDISNSLNWYQQKPDGTVKLLIYYTSRLHSGVPSRFTGSGSGTDYSLTISNLEQEDIATYFCQQGNTLPLTFGAGTKLELKR
B6: 3-5B2-2G4 (antibody, human IgG1, kappa, V domains shown)
VH: QIQLVQSGPELKKPGETVKISCKASGYTFTNYGMNWVKQAPGKGLKWMGWINTNTGEPTYAEEIKGRFAFSLETSASTAYLQINNLKNEDTATYFCSREGIYGMDSWGQGTSVTVSS
VL: SIVMTQTPKFLLVSAGDRVTITCKASQSVSNDVVWYRQKPGQSPKLLIYYASNRYIGVPDRFTGSGYGTDFTFTISTVQAEDLAVYFCQQDYYSPWTFGGGTKLEIKR
B7: humanized antibody VH1+VL2, full-length (IgG format) (antibody, V domains shown)
VH: QVQLVQSGAEVKKPGASVKVSCKASDYTFTNYWLGWVRQAPGQGLEWMGHIYPGGGYTNYNEKFKGRVTMTRDTSTSTVYMELSSLRSEDTAVYYCARVRSGNDALDFWGQGTLVTVSS
VL: EIVLTQSPATLSLSPGERATLSCRASESVDEYGISFMNWYQQKPGQAPRLLIYSASNQGSGIPARFSGSGSGTDFTLTISSLEPEDFAVYFCQQSKEVPWTFGGGTKLEIK
B8: humanized antibody VH1+VL3, full-length (IgG format) (antibody, V domains shown)
VH: B7 VH
VL: B7 VL with Y40F
B9: VH2 + VL3-scFv (scFv, V domains shown)
VH: B7 VH with M48I, R72A, Y95F
VL: B7 VL with Y40F
notes: Humanized 5-20E11-5F2; CHO supernatant; Called scFv, but heavy and light vectors were co-transfected
B10: VH4 + VL3-scFv (scFv, V domains shown)
VH: B7 VH with Q43H, M48I, V68A, M70L, R72A, Y95F
VL: B7 VL with Y40F
notes: as for B9
B11: VH3 + VL4-scFv (scFv, V domains shown)
VH: B7 VH with M48I, V68A, M70L, R72A, Y95F
VL: B7 VL with Y40F, V89M
notes: as for B9
B12: VH2 + VL1-scFv (scFv, V domains shown)
VH: B7 VH with M48I, R72A, Y95F
VL: B7 VL with F91Y
notes: as for B9
B13: VH2 + VL2-scFv (scFv, V domains shown)
VH: B7 VH with M48I, R72A, Y95F
VL: B7 VL
notes: as for B9
B14: VH1 + VL4-scFv (scFv, V domains shown)
VH: B7 VH
VL: B7 VL with Y40F, V89M
notes: as for B9
B15: VH3 + VL1-scFv (scFv, V domains shown)
VH: B7 VH with M48I, V68A, M70L, R72A, Y95F
VL: B7 VL with F91Y
notes: as for B9
B16: VH4 + VL4-scFv (scFv, V domains shown)
VH: B7 VH with Q43H, M48I, V68A, M70L, R72A, Y95F
VL: B7 VL with Y40F, V89M
notes: as for B9
B17: VH1 + VL2-scFv (scFv, V domains shown)
VH: B7 VH
VL: B7 VL
notes: as for B9
B18: VH4 + VL1-scFv (scFv, V domains shown)
VH: B7 VH with Q43H, M48I, V68A, M70L, R72A, Y95F
VL: B7 VL with F91Y
notes: as for B9
B19: VH3 + VL3-scFv (scFv, V domains shown)
VH: B7 VH with M48I, V68A, M70L, R72A, Y95F
VL: B7 VL with Y40F
notes: as for B9
B20: VH1 + VL1-scFv (scFv, V domains shown)
VH: B7 VH
VL: B7 VL with F91Y
notes: as for B9
B21: VH1 + VL3-scFv (scFv, V domains shown)
VH: B7 VH
VL: B7 VL with Y40F
notes: as for B9
B22: VH3 + VL2-scFv (scFv, V domains shown)
VH: B7 VH with M48I, V68A, M70L, R72A, Y95F
VL: B7 VL
notes: as for B9
B23: VH2 + VL4-scFv (scFv, V domains shown)
VH: B7 VH with M48I, R72A, Y95F
VL: B7 VL with Y40F, V89M
notes: as for B9
B24: VH4 + VL2-scFv (scFv, V domains shown)
VH: B7 VH with Q43H, M48I, V68A, M70L, R72A, Y95F
VL: B7 VL
notes: as for B9

One test deals with T1, IL-11 protein (UniProt P20809 22-199, limits assumed).
T1 construct: also called IL-11 antigen
T1 sequence (looked up): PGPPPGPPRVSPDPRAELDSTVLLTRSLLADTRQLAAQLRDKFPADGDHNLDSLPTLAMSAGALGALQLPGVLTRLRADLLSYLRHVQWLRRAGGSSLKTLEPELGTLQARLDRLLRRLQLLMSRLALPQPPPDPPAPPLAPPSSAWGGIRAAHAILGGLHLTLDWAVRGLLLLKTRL
As to the kind of experiment: flow competition: IL-11 + antibody on IL-11R cells; lower = more blocking. From the text:
(§1) Cell lines with high secretion of specific antibody were selected for expanded culture and cryopreservation.
For the molecule B1, the “FITC Mean” value worked out at 9070.

As for B2, the “FITC Mean” value was found to be 3150.

In the case of B3, the “FITC Mean” value was 10900.

Take B4: the “FITC Mean” value was found to be 13600.

B5: the “FITC Mean” value was found to be 15300.

As for B6, the “FITC Mean” value was 19800.

The target in the next test is T1, IL-11 protein. As to the kind of experiment: ELISA, monoclonal hybridoma supernatant on IL-11.
Description: as §1
B1 showed an OD450 of 1.54.

The molecule B2 returned an OD450 of 1.6.

For the molecule B3, the OD450 was 1.69.

The molecule B4 displayed an OD450 of 1.51.

As for B5, the OD450 is 1.61.

In turn, B6 yielded an OD450 of 1.65.

A further test deals with T2, IL-11-Fc protein (UniProt P20809 22-199, limits assumed).
T2 construct: also called IL-11 recombinant protein with Fc tag; not shown: Fc tag
T2 sequence (looked up): T1 sequence (looked up)
The test can be described thus: flow competition: IL-11-Fc + antibody dilutions on membrane-IL-11R CHO cells. As to the method: Then the plate was incubated with 1.5*10\hat{ }5 membrane-IL-11R CHO cells (100 ul/well) for 1 h at room temperature. After incubation, the plate was centrifuged at 1500 rpm for 5 min, washed three times with PBS, and 1:400 diluted flow secondary antibody Goat-anti-Fc-FITC (Abcam, ab98529) was added with 200 ul/well. Then, the plate was incubated at 4° C. for 1 h, centrifuged at 1500 rpm for 5 min, washed three times with PBS, resuspended cells in 180 ul PBS, and detected by flow cytometry.
Broadly, the EC50 is the midpoint of the concentration-response curve. As to B7, the 50% effective concentration (EC50) is 11.6 µg/mL.

In the case of B8, the EC50 was 10.5 µg/mL.

The target in a further test is T1, IL-11 protein. As to the kind of experiment: SPR (Biacore), antibody captured, 400 nM IL-11 as analyte. As to the method: (§2) The measure method included the steps of capturing the humanized antibody at a flow rate of 10 ul/min. […] Finally the chip was regenerated with 10 mM glycine buffer.
In general terms: SPR reads the build-up and loss of mass on a sensor chip optically.
What is called Kd is the equilibrium constant for the complex coming apart. By koff is commonly meant the rate constant with which the complex falls apart. As usually defined, the kon is a measure of how fast the partners come together. B9: binding was characterised by a dissociation constant (Kd) of 11.9 nM, the koff turned out to be 0.000541 s⁻¹ and the on-rate constant (kon) was 45600 M⁻¹ s⁻¹.

Turning to B10, binding was put at a Kd of 11.2 nM, the koff was determined as 0.000516 s⁻¹ and the kon stood at 46100 M⁻¹ s⁻¹.

B11 displayed a Kd of 13.3 nM, an off-rate constant (koff) of 0.000556 s⁻¹ and an on-rate (kon) of 41800 M⁻¹ s⁻¹.

B12 displayed a Kd of 16.7 nM, a koff of 0.00089 s⁻¹ and a kon of 53400 M⁻¹ s⁻¹.

In turn, B13 had a dissociation constant Kd of 17.8 nM, a koff of 0.000812 s⁻¹ and a kon of 45700 M⁻¹ s⁻¹.

Molecule B14 displayed a Kd of 11.7 nM, a koff of 0.000387 s⁻¹ and a kon of 33100 M⁻¹ s⁻¹.

B15 yielded a Kd of 22.5 nM, a dissociation rate constant (koff) of 0.001 s⁻¹ and a kon of 44500 M⁻¹ s⁻¹.

Turning to B16, the dissociation constant (Kd) came out at 10 nM, the dissociation rate constant (koff) is 0.000481 s⁻¹ and the kon came out at 47900 M⁻¹ s⁻¹.

For B17, the Kd was 11.2 nM, the koff came out at 0.000461 s⁻¹ and the kon worked out at 41300 M⁻¹ s⁻¹.

Consider B18, for which the dissociation constant (Kd) worked out at 17.2 nM, the off-rate (koff) was 0.00084 s⁻¹ and the kon worked out at 48900 M⁻¹ s⁻¹.

In turn, B19 yielded an equilibrium dissociation constant (Kd) of 9.76 nM, an off-rate (koff) of 0.000464 s⁻¹ and a kon of 47600 M⁻¹ s⁻¹.

B20 had a dissociation constant (Kd) of 21.6 nM, a koff of 0.000758 s⁻¹ and a kon of 35100 M⁻¹ s⁻¹.

The molecule B21 returned a Kd of 12.3 nM, a dissociation rate constant (koff) of 0.000436 s⁻¹ and an association rate constant (kon) of 35500 M⁻¹ s⁻¹.

The molecule B22 came in with a dissociation constant Kd of 14.6 nM, a koff of 0.00068 s⁻¹ and a kon of 46500 M⁻¹ s⁻¹.

The molecule B23 registered a dissociation constant (Kd) of 10.8 nM, an off-rate constant (koff) of 0.000528 s⁻¹ and a kon of 48800 M⁻¹ s⁻¹.

B24 gave a dissociation constant Kd of 11.1 nM, an off-rate constant (koff) of 0.000614 s⁻¹ and an association rate constant (kon) of 55200 M⁻¹ s⁻¹.

In a further test the target is T1, IL-11 protein. The test can be described thus: SPR (Biacore), IgG captured, IL-11 6.25-400 nM as analyte. The method, then: as §2
B7 returned an equilibrium dissociation constant (Kd) of 12 nM, a koff of 0.000597 s⁻¹ and a kon of 49800 M⁻¹ s⁻¹.

The molecule B8 gave a Kd of 9.03 nM, an off-rate constant (koff) of 0.000474 s⁻¹ and an on-rate (kon) of 52600 M⁻¹ s⁻¹.
